Fewer inactive variants are shown than the library holds.
B1: TPR 5TU (parent)
chain: GGAUCUUCUCGAUCUAACAAAAAAGACAAAUCUGCCACAAAGCUUGAGAGCAUCUUCGGAUGCAGAGGCGGCAGCCUUCGGUGGCGCGAUAGCGCCAACGUUCUCAACUAUGACACGCAAAACGCGUGCUCCGUUGAAUGGAGUUUAUCAUG

Variants of: B1
Assay: polymerase ribozyme fitness, log enrichment relative to wild type (log ratio); higher = more active; in vitro selection for triplet polymerase activity
Summary of the method: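 After PCR construction and transcription, each subunit's mutant library from a heterodimeric triplet polymerase ribozyme was annealed with a biotinylated primer, the partner subunit and triplets. Incubation was frozen, at −7 °C, and extended constructs were gel-excised, bound to streptavidin beads and amplified by RT-PCR, in one selection round done in triplicate. Fitness is the logarithm of a genotype's enrichment divided by that of the wild type, from inverse-variance-weighted replicate averages of Illumina-sequenced inputs and outputs. The base of the logarithm is 2, and genotypes needed ≥10 input reads and ≥1 read per output.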

Variant	polymerase ribozyme fitness (log ratio)
C38U U61G C85A G94C C123A	-1.29
C38G U44A G65C	≤ -4.2
C38A C93A G136A	-1.47
A37C C43U G68U A73C C79G C95U U148G	≤ -4.2
C38U C85G	-3.44
C38A C76G G92C	≤ -4.2
A39G C96U C116U	-1.75
C36U A52U	-1.56
A37C A41U G48U A73U C93G C99U G140A	≤ -4.2
A39U A40C C79A U82C C96A U109G A119U G143A	≤ -4.2
C38U G126U	-0.118
C36U A66C C69A U78G	≤ -4.2
A37C A40G C57U A73C C93U	≤ -4.2
A37G G81C A142C	-3.82
A39G C87U	-2.33
A39C C76G A137C	≤ -4.2
A39U C103G	-4.14
A37G U145G	-2.35
A37G C69G	-0.726
C38U A120U A142U	-0.329
A37U U61A C85U U134A	-3.78

Variant	polymerase ribozyme fitness (log ratio)
A39G U55A C75G C87U A89U C99U C116U A142U	≤ -4.2
C38A C87U A107U	-4.17
A37G A47G U101C	-2.53
C38U U53A	-1.72
A37U G50C U78C A98U U134C	≤ -4.2
A37C U55A C72U G88C A98G C103G U127C U134A	≤ -4.2
C38U G94A	-0.383
A37C U56A C85A C99G A107G G124A	≤ -4.2
C38A U44A A47U G86U C87G G100A A107G C118U	≤ -4.2
C36U A40G C108G G140A	≤ -4.2
C38U C57A C87A	≤ -4.2
A39U A40U C54U G84C C85A G92C G128A	≤ -4.2
C38G A49U U55A C87A G126A G143C	≤ -4.2
A39C G48C G88U A97G U144G	≤ -4.2
A37G A60G C87U	-1.88
A37C U127G	-3.83
C38U A49C A60C U82G G83A	≤ -4.2
A37G C51U	-2.54
A37C A40C G58U G94A A97U G143C	≤ -4.2
A39G G48A U56A C76A C79U C105U	≤ -4.2
A39C A91C A137G	≤ -4.2

Variant	polymerase ribozyme fitness (log ratio)
A39G A41G A73G G86C G92U	≤ -4.2
A37G U61G C93U A115C	-4.18
C38U U55A G59C U135C	-1.98
C36U A91U	≤ -4.2
A39C C57G A89U A97G	-3.41
C36U A107G U151A	≤ -4.2
A39C A40G G50C C75A C85G	≤ -4.2
A37C C76A	-3.34
A37U A49U U55A U56A U127A	≤ -4.2
A39U C99A	-3.7
A37U A60G A91G G143C	≤ -4.2
C38U G71A G81A G83U C93A	≤ -4.2
A37C A39C C95U G133U	≤ -4.2
A37G C57G A97G	-2.57
C36U U56A C76U G86A A115C	-3.51
A37C G92U	-0.276
A39U A60U U146A	-3.58
C38A C76U	-0.21
C38U G65C G70U C85G U111G A115U U127G G140C U146G	≤ -4.2
C38U G84U A91U	≤ -4.2
A39G U109C U144A	-3.59

Variant	polymerase ribozyme fitness (log ratio)
C38A A66G G70A	≤ -4.2
C38A G58A C96G C129G G143A	-2.67
C38U C63U A73G C118U A150G	-2.88
A37C G58A C87A U101G G124C A150U	≤ -4.2
C36U U56G A60C U61G C79U C93U C99U G112C U144A A150C	≤ -4.2
A39G A115C	-3.17
C36U G143A	-2.3
A37C A41U A52C C118A	-3.42
C38A G83A	-0.746
A37G G67A C79G	≤ -4.2
C38G A66G U77G G83U A107U G128C A137U	≤ -4.2
C38U G50A	-2.15
C36U U53A A119G	-1.17
C38U G83C C132A	≤ -4.2
A37U U146G	-2.19
A37C A97G	0.477
A39G A41C	-1.44
C38G C51U	-0.547
C38U A47U A121U U135A A142U	-2.42
A37U A60U C75U C96A U111A	≤ -4.2
A37U G70C C85U G92A	≤ -4.2
